Peptide text beside a SMILES is read from it.
The molecules below were run against ATX1 AXH (residues A567-K689 of human ATX1) (human) (assay: NMR relaxation (T1, T2, rotational correlation time); free AXH, before addition of the peptide; 27°C, 600 MHz). Conditions: not given.
“ATX1 AXH (residues A567-K689 of human ATX1) (domain or fragment)” was tested, and the stoichiometry N was 2.

The molecules below were run against ATX1 AXH (residues A567-K689 of human ATX1) (human) (assay: ITC; 0.041 mM AXH in the cell, 0.410 mM peptide in the syringe, 21 aliquots; 25°C; 50 mM Tris-HCl pH 7, 50 mM NaCl, 2 mM TCEP; single-site model; averages of three measurements). Conditions: not given.
For VFPWHSLVPFLAPSQ [L-CICp], the Kd was 33 nM.
Molecule VFPWHSAVPFLAPSQ [L-CICp with L40 mutated to alanine] has a fold change of Kd against wild-type L-CICp of 10 fold.
In the case of PWHSLVPFLAPSQ [CICp], the Kd is reported as 8000 nM.
VFPAHSLVPFLAPSQ [L-CICp with W37 mutated to alanine] showed a fold change of Kd against wild-type L-CICp of 100 fold.

Molecular target: T1, ATX1 AXH (residues A567-K689 of human ATX1) (human)
T1 chain: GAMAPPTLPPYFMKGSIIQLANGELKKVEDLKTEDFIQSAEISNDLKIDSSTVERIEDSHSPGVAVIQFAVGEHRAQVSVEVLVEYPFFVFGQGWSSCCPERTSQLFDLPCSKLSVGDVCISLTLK
Assay: ITC
Conditions: not given
Molecule VFPWHSLVPFLAPSQ [L-CICp] has a Kd of 30 nM.
VFPWHSLVAFLAPSQ [L-CICp with P42 mutated to alanine] was tested, and the Kd was 40 nM.
VFPWHSLVPALAPSQ [L-CICp with F43 mutated to alanine] showed a Kd of 60 nM.
For AFPWHSLVPFLAPSQ [L-CICp with V34 mutated to alanine], the Kd was 20 nM.
Molecule VFPWHSLAPFLAPSQ [L-CICp with V41 mutated to alanine] has a Kd of 70 nM.
For VFPWHALVPFLAPSQ [L-CICp with S39 mutated to alanine], the Kd was 10 nM.
Work on VFPWASLVPFLAPSQ [L-CICp with H38 mutated to alanine] yielded a Kd of 50 nM.
VFPWHSLVPFLAASQ [L-CICp with P46 mutated to alanine] gave a Kd of 20 nM.
For VFAWHSLVPFLAPSQ [L-CICp with P36 mutated to alanine], the Kd was 40 nM.
VFPWHSAVPFLAPSQ [L-CICp with L40 mutated to alanine] showed a Kd of 500 nM.
VAPWHSLVPFLAPSQ [L-CICp with F35 mutated to alanine] was tested, and the Kd was 30 nM.
Work on VFPWHSLVPFAAPSQ [L-CICp with L44 mutated to alanine] yielded a Kd of 50 nM.
VFPAHSLVPFLAPSQ [L-CICp with W37 mutated to alanine] showed a Kd of 2600 nM.

The molecules below were run against T2, ATX1 AXH (residues A567–K689 of human ATX1) (Homo sapiens, UniProt P54253) (assay: ITC binding of CIC peptides to ATX1 AXH). Conditions: 25°C, 50 mM Tris-HCl pH 7, 50 mM NaCl, 2 mM TCEP, 0.041 mM AXH in cell, 0.410 mM peptide in syringe, averages of three measurements, read-out: dissociation constant (Kd).
T2 construct: Recombinant ATX1 AXH (residues A567–K689 of human ATX1); His6-GST (N, cleaved yes); made in house; host or cells: E. coli BL21(DE3)pLysS
T2 sequence (P54253 566-688 limits assumed): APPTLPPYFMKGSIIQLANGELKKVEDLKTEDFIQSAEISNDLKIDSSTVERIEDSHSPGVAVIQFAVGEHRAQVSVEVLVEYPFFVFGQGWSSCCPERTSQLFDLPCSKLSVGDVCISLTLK
Experimental: Binding affinities of AXH with CIC ligands were measured at 25°C by a MicroCal Omega VP-ITC (MicroCal Inc., Northampton, USA). Both protein and peptides buffers were 50 mM Tris-HCl pH 7, 50 mM NaCl, 2 mM TCEP. Solutions of 0.041 mM AXH in the cell were titrated by injections of a total of 283 µl of 0.410 mM peptide in the syringe in 21 aliquots. Data were processed with the software MicroCal Origin version 5.0 provided by the manufacturer. All dissociation constants were averages of three measurements.
CC(C)C[C@H](NC(=O)[C@H](Cc1ccccc1)NC(=O)[C@@H]1CCCN1C(=O)[C@@H](NC(=O)[C@H](CC(C)C)NC(=O)[C@H](CO)NC(=O)[C@H](C)NC(=O)[C@H](Cc1c[nH]c2ccccc12)NC(=O)[C@@H]1CCCN1C(=O)[C@H](Cc1ccccc1)NC(=O)[C@@H](N)C(C)C)C(C)C)C(=O)N[C@@H](C)C(=O)N1CCC[C@H]1C(=O)N[C@@H](CO)C(=O)N[C@@H](CCC(N)=O)C(=O)O [H38] (H-VFPWASLVPFLAPSQ-OH) gave a Kd of 50 nM.
